In a protein production outcome set (Wang et al. 2014):

Assay: label from the status in PepcDB records

Row | Sequence | protein production
1 | MSHTAEIPMVPGSESPLELKPLKAVDPKAVYHRRAQRLLSLAKDSPLADYFELCRRVVAIQARLAAEADFGQLLAWGKDEAIPLSHLGSEADSYWQGLLQQLLSDLLPQVGEDLARVLRLLMQQSPEQLTSWGASLRQGHMSAVPARFSLFIWAAMGVYWSHWAPMVIKRIDQRKVAQQNLCPICGSHPVASVIVDQPRAGLRYLHCSLCESEWHYIRAHCTSCGQDKGTTLWSFDDTQAQVRIESCDECHGYTKMMFVEKSPLMDVVADDLATLMLDSELNAKGFGATTVNPLLLAHETEQ | failed
2 | MSHVSLQEFLKTEPDGTLEVVAEQYNTTLLEVVRNLPSSTVVPGDKFDTVWDTVCEWGNVTTLVHTADVILEFSGELPSGFHRHGYFNLRGKHGMSGHIKAENCTHIALIERKFMGMDTASILFFNKEGSAMLKIFLGRDDHRQLLSEQVSAFHTLAASLKEHA | not failed
3 | MSIADAEFAQAKTAQSAPTAAKPQLPPGVVTEGPLVKAKLRESYLLLGILYVGAVAGIIWAVTQGVGKVELFTFAWMFALTTFGIGAGMHRLFVHRSFRTGPIMRVFFCAIAQMAVQGSIAKWVANHRRHHLYADDVGDPHSPQFDGFGNRYVSALKGFLHAQGSWVFDQATTDNEYYAKDILADPIAMFFVRTRWVWYGMSAVFIPGFIGYVFGGVHTMIGCVLFSGLLRAYLLILVSQLTGSVCHAYGYRRFEVDDASTNEFVTTILTFGEGLHNNHHRFPRDAYISHAWWEIDLNGLIILGMEKIGLVHDVFHASHRQLERASEAQAASTR | failed
4 | MSIASLIGTVGGVGYLRPAPGTWGSLAALPLAWVLHQLGGFPLLALATLGAFVAGLWATRVMTAGQTDHDPSEIVIDEVAGQFLALWALSLPAWSHGIEISALWPGWIAAFVLFRLFDITKPGPVGWADRRGDPMGVMLDDIIAGLFAAIGTALLAALSHGVLGL | failed
5 | MSIATTPLHTALSLPQIQSFAASDMAAIDTLIHDRLTSDIVLINQIADHIICSGGKRLRPMLTMLAGHAIGPTGPHHHQLAAIIEFIHTATLLHDDVVDGSELRRSRSTANALWGNAPSVLVGDFLYSRSFQLMTELANLEVMQILAETTNRISEGEVLQLLHVHNPDTDETTYLSVIERKTAILFAAAAQLGALASHADTQTQTRMYEYGMQLGYAFQITDDVLDYTANNSQLGKNLGDDLAEGKATLPVIHAMTHSDAATCERLRMIISKGDSDAMPEVLNAIRTTGSLDYSRQRASAYAATAERALDGLPETEAVAALRGLARYAVQRTY | failed
6 | MSIDVHPNNYAYQTNEPYKNFEAEDKLIGHLQDFVDGHQEDVKRIGSKMSEMKAKFEEKFDDLTNRLENMEGALVEINNALLNHQDDIQDQYTRIVNVGLVVDTVESHLDWKIEELEKKLNNSNEFSE | not failed
7 | MSIELDATTYIHAKPTTAHSYILPKIFDVLGDHFDGSAENDVFDLGCGTGGAAAALTKAGYDVVGVDPSSDGIGKANIRHPGLALSVGSAYDDLSREYGSFSAVISLEVVEHVYDPKTFTSTMFDLVKPGGIAVISTPYHGYLKNLALAATGKMDDHFMPLKDHGHIKFWSKNTLRTLLLETGFANVRFEYVGRIPAFAKSMIAVADKPFSQSARHGAVRRSSPEVVSTACRQKKP | failed
8 | MSIESDMIHVEVVYALPHEQRVFNLVVNNHATVEEIIRQSGVLELYPEIDLAKNKVGVFSRNVKLDATVRDKDRIEIYRPLLADPKEIRRKRAEQAKAAGNADPVTGGKPNALRK | failed
9 | MSIHVNEANLTFHLQTDHTSYIFQIMKNGEAGQIYYGPRIHVQPTYQNLMSQEWRDATPSLNEENPNFQPATIKAEYASLGKGDFRQPAFQVTQANGSRITELTYDHYQLLTGKQRLANLPSTFDDTDDDAQTLVVSFNDRITGLALDLNYSIFPHQDVIVKSAKFTNPSSEKLVLNRALSSQLDLPDANYDLIQFSGTWARERHLYRHPLRPGMQSISSLRMASSHQQNPFMMLARPQTTDEQGAVFGFNLVYSGNFLDAIEVDQYSTSRILTGINPDEFGWNLAPQATFQTPEAILSYTSAGMNQLSQQMASFYQQHLVNPRFAHEERPVLINNWEATYFDFNEAKLMTIVNQAKRLGIEMFVLDDGWFGHRDDDTTSLGDWFVDQRKFPDGIEHFSQAVHQQGMKFGLWFEPEMVSVDSDLYQQHPDWLIHAPKSTPTPGRHQFVLDMARPEVVDYLFKLMSQMIESANLDYIKWDMNRYATEMFSSRLTSDQQLELPHRYILGVYQLYARLTQAYPNVLFESCASGGGRFDLGMMYYAPQAWTSDDTDAAERLLIQFGTSYGYPQAMMGAHVSAVPNDQMGRITSLKTRGAVAFFGDLGYELDITKMAPTELDQVKKQVAFYKCYRQLFQFGKFYRIDSPFVEDGNVTSWQVVSDDQKQAIAARYQLLNHPNAPYTRFYFKGLRPNQRYQINDDPSTYYGDELMNAGYFVPTILADGQESKDFYTQLFVVTAILEHHHHHH | not failed
10 | MSIIFILKMSKQSEQILEEQLLIQLHKLGYEKVILPNEDALLLNLKKQLEKHNKITFSKAEFDKVLNIVNKGSVFEKAKILRQRQHIIRDNGDNLYFEFLNTDYWCQNEYQVTNQLSQEGRYLNRYDVTLLINGLPLVQIELKRRGLELKEAFNQIDRYRKHSFGSGHGLYHFVQLFVISNGVNTKYFGNFGIHKQEYLQTFHWTDENNKPLNNILNGFTDTFLEPCHISKMICKYIVLHETEKKLMVLRPYQYFAVENIIKKVKENEVLNGYDINKNGYIWHTTGSGKTLTSFKASQILSNIPAIKKVVFVVDRKDLDYQTNQEYEKFSQGCVSSVGNTDDLIKKFNDPAERIIVTTIQKLNNAISGKNIYKMKAMQDQRMVFIFDECHRSQFGDTHKNIVSYFTNIQLFGFTGTPILVENANGEKTTASLFGKCLHKYVITDAIRDENVLRFSVEYIQTFKQKEHIVDLKIEQINETEVFEAPERKEAIVNYILQHHKQKTQQGKYCAMMCVQDIDSVIQYYEILKAMKKAGEHQLKIITIFSFAQNEDPLDYEIKTELSVVEEPKALYGLPPHRRELLDAYIGDFNQLYDTAHSTKDSQSFYTYYNDVAKKAKNNEMDILLVANMFLTGFDSKYLNTLYVDKNLQYHGLIQAFSRTNRTHDKNKTQGNIVCFRNLKDKTDEAITLFSNREAIDEVIVAPYETYVEEFNKAVNQLKAIVPNVDSVDDLYTEEDQLKFILAFRNMIRLHKKMSHYTEFTWDDLEIEEQSFLDYSSKYQDLKDSIVHKSDKEKTSILDDIDFELELIKKDTINVSYIVQLLFKLKVKKGKKDKEEVEKEIFNLLNTEVSLRSKRELIEKFIKENMSKIVEAEDIVDEFTRFWNEEQQKAFDELVQDENLSAERTQHLIEGYLFSEQEPLRDEILKLRNEGRPSALQAKDISNRILQRIKDFVNTFINGMNIAA | failed
11 | MSIKKLWVIPKDGYLLLLDYDSDEEEEQAHSEVKRPAFGKHENMPPHVEADEDIRDEQDSMLDKSGENVSFSEEWQRFARSVETPMENWNLLSGEQQVRNASELDLMEVQNPVTHDDGNANPEEVVGDTRKKINNKLCEQKFDMDIQKFNEEQEKSVNNYQKEQQALKLSECSQSPTMEAIEDMHEKSMEGLMNMETNNYDMLFDVDGEETL | failed
12 | MSIKYLYDRKKIAVTYGEEKYSYADIIKYVNYYSEFLDISKGDRVALMMENRPESIFSFFSIWAKKGIALSLDAGYTVEQLAFVLNDSKPKYIFVSNKIKEVVEKANEQVGNIVKIMVVDEITLPTDYVIKQEEYENDSNEDLAVIVYTSGTTGNPKGVMITYENIKTNMEGVRAVDLVTETDVILAMLPYHHIMPLCFTLILPMYMGVPIVLLTEISSASLLKALQENRVTVILGVPRVWEMLDKAIMTKINQSSLAKFMFKMASKINSMSIRKMLFSKVHKQFGGNIRLMVSGGAKIDKNILEDFRTMGFCAIQGYGMTETAPIITFNVPGRERSDSAGEVIPNVEVKIADDGEILVKGKNVMKGYYNNEQATKEAFDKDGWFHTGDLGKMDGKYLIIIGRKKEMIVLPNGKNIDPNDIEAEIIKNTDLIKEIAVTEYKEQLLAIIYPDFDQIKAKQIVNIKDAIKWEVIDKYNVTAPNYKKIHDIKIVKEELPKTRIGKIRRFMLKDLIEEKTENTDKKEAKKIIEVPAEMKEKFDIINKYMDERYQKAIDLDSHIELDLGFDSLDIVEFMNFLNSTFEITIVEQDFVENKTISAIIKLINDKAGKLVEKIDKNENLKKIIESDSNVKLPKDARYAKVLKFILSLMFRYYFKYKYRGKENLGEGAGIIVGNHQSYLDAFMLNNAFTYKELGGNYYIATALHFKSNFMKYLAGHGNIILVDANRNLKNTLQAAAKVLKSGKKLLIFPEGARTRDGQLQEFKKTFAILSKELNVPIYPFVLKGAYEAFPYNKKFPKRNNISVQFLEKIEPNDKTVEELVEETKNNIAKNYY | failed
13 | MSILDILILLAPIFFVIVLGWFAGHFGSYDAKSAKGVSTLVTKYALPAHFIAGILTTSRSEFLSQVPLMISLIIGIVGFYIIILLVCRFIFKYDLTNSSVFSLNSAQPTFAFMGIPVLGSLFGANEVAIPIAVTGIVVNAILDPLAIIIATVGESSKKNEESGDSFWKMTGKSILHGLCEPLAAAPLISMILVLVFNFTLPELGVKMLDQLGSTTSGVALFAVGVTVGIRKIKLSMPAIGIALLKVAVQPALMFLIALAIGLPADQTTKAILLVAFPGSAVAAMIATRFEKQEEETATAFVVSAILSLISLPIIIALTA | failed
14 | MSIPFSNTHYRIPQGFGNLLEGLTREILREQPDNIPAFAAAYFESLLEKREKTNFDPAEWGSKVEDRFYNNHAFEEQEPPEKSDPKQEESQISGKEEETSVTILDSSEEDKEKEEVAAVKIQAAFRGHIAREEAKKMKTNSLQNEEKEENK | failed
15 | MSIPLLEYKPSSQNQRVPGYEVPNEDTPRIYRIEDAAYDSELKELIWATYRQVFSEHVILKFFRQGNLESQLKNRAISVRDFVRGLAKSEAFKTLVIKSNSNYRLVELALKRLLGRAPYNKDEEIAWSIKIATNGWDGFVDALLDSEEYQSNFGENIVPYQRRRYKDRPFNLVTPRYGNYWRDKLESERYIEGDIKNFLELAKSIEIKTVTFTPVSTANIKIPDTTRNTTPTGIPISVNPSANFPVRLEHHHHHH | failed
16 | MSIQAPPRLLELAGQSLLRDQALSISAMEELPRVLYLPLFMEAFRRRHFQTLTVMVQAWPFTCLPLGSLMKTLHLETLKALLEGLHMLLTQKDRPRRWKLQVLDLRDVDENFWARWPGAWALSCFPETMSKRQTAEDCPRMGEHQPLKVFIDICLKEIPQDECLRYLFQWVYQRRGLVHLCCSKLVNYLTPIKHLRKSLKIIYLNSIQQLEIRNMSWPRLIRKLRCYLKEMKNLRKLVFSRCLQNPLENLELTYGYLLEEDMKCLSQYPSLGYLKHLNLSYVLLFRISLEPLGALLEKIAASLETLILEGCQIHYSQLSAILPGLSHCSQLTTFYFGRNCMSMGALKDLLCHTSGLSKLSLETYPAPEESLNSLVRVDWEIFALLRAELMCTLREVRQPKRIFIGPTPCPSCGSSPSEELELHLCC | failed
17 | MSIRNPNSTLLYRAHSRPPVKLCAPPRSLLPSRRHFSAPRAVVSYPGIRFGFTSPEVLLNRSVVAFAASHEDSGESGVEVGKEKSDIDVEDDTSKEAWKQTLESFKEQVSKMQSVSSEAYSVNSQKAMTVLKETSEQLRIQAEKAKEELGTKAKVVSEEGREYILKAAEESPSDVKEIVEAFASTEDLKNVSRANDFHVGIPYGLLLLVGGFINFMVSGSIPAIRFGVILGGALFALSLASLKSHRKGESSTKFLKGQMAIVAIIFLRELRLLLSQKSTFLGFFTTLTSGGVLGFYLYKMVVKREKGPTLEDGGEDESSDGFVRSEG | failed
18 | MSIRPATHAGSWYSNRAQELSQQLHTYLIKSTLKGPIHNARIIICPHAGYRYCGPTMAYSYASLDLNRNVKRIFILGPSHHIYFKNQILVSAFSELETPLGNLKVDTDLCKTLIQKEYPENGKKLFKPMDHDTDMAEHSLEMQLPMLVETLKWREISLDTVKVFPMMVSHNSVDVDRCIGNILSEYIKDPNNLFIVSSDFCHWGRRFQYTGYVGSKEELNDAIQEETEVEMLTARSKLSHHQVPIWQSIEIMDRYAMKTLSDTPNGERYDAWKQYLEITGNTICGEKPISVILSALSKIRDAGPSGIKFQWPNYSQSSHVTSIDDSSVSYASGYVTIG | failed
